Values joined by “and” are separate entries in the source; they are usually repeats but may differ in a detail not shown here. Equal entries are not always repeated. Where two headings read alike, the source gives them in different places.

To fix the notation:
B1: yeast centrin (Cdc31p) (natural protein, S. cerevisiae)
chain: MSKNRSSLQSGPLNSELLEEQKQEIYEAFSLFDMNNDGFLDYHELKVAMKALGFELPKREILDLIDEYDSEGRHLMKYDDFYIVMGEKILKRDPLDEIKRAFQLFDDDHTGKISIKNLRRVAKELGETLTDEELRAMIEEFDLDGDGEINENEFIAICTDS

Experiment [1] concerns the target T1, Sfi1p fragment K246-E677 (15-repeat construct) (S. cerevisiae, UniProt Q12369 246-677).
T1 sequence (looked up): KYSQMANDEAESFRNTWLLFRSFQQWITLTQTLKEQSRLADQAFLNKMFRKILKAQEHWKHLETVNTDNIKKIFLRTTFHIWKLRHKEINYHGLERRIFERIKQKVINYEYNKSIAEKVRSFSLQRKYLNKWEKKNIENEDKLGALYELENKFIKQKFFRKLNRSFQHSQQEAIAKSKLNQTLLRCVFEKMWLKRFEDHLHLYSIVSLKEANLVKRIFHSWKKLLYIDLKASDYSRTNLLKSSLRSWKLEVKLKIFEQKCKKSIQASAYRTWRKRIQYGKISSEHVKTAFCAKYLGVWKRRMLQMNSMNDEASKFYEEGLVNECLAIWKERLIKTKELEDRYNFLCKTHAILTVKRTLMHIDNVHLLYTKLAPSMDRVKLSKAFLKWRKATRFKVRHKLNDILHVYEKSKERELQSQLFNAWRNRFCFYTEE
Kind of experiment: native MS.

In experiment [2] the target is B1. Description: crystal structure.
Experiment [3] deals with B1. Description: crystal structure. This is another data set of the same source.

The term stoichiometry N denotes the number of molecules, sites or subunits per partner or assembly. Regarding B1, the “stoichiometry N” value in experiment [1] is 15 and 14.

B2: Sfi1p fragment K643-E710 (two repeats; crystal 1 construct) (domain or fragment, S. cerevisiae, UniProt Q12369 643-710, looked up)
chain: KLNDILHVYEKSKERELQSQLFNAWRNRFCFYTEECNIQAISKRNYQLEKMVLKKFRERLLEIVKSEE
B2: in the experiment with yeast centrin (Cdc31p) [2], the binding result was “binds”.

B3: Sfi1p fragment N218-H306 (three repeats; crystal 2 construct) (domain or fragment, S. cerevisiae, UniProt Q12369 218-306, looked up)
chain: NEEANRFANQAKLRVQEAVFYIWSDKTLKYSQMANDEAESFRNTWLLFRSFQQWITLTQTLKEQSRLADQAFLNKMFRKILKAQEHWKH
Regarding B3, in the experiment with yeast centrin (Cdc31p) [3], the binding result is listed as “binds”.
